Laboratory results: a protein production outcome set (Wang et al. 2014)

Assay: label from the status in PepcDB records

Row | Sequence | protein production
1 | MRLVADSACDIKELRGMVFKAVPLTISTDNEEFCDDGQLDIHRMLDILEKHKGRSYTACPGIDAWLEAFGDDDEIFVVTITAGMSGTYNSAMAARAVYLEEHPQAKVRVIDSKSTGPQMRIILEQLQQMIEEGKKFEEIDGAIDAYMQKTRLFCSLKSLHNLAQNGRVSKVVASAAEVLGISVIGTASSHGTLEAIGKCRGDKKLLVKLQALLDDAGYEGGKLRICHVENEALADKIADMIKQAYGTTDVCVYKAGGLCSYYAERGGIILSCETK | not failed
2 | MELSAVGERVFAAESIIKRRIRKGRIEYLVKWKGWAIKYSTWEPEENILDSRLIAAFEQKERERELYGPKKRGPKPKTFLLKARAQAEALRISDVHFSVKPSASASSPKLHSSAAVHRLKKDIRRCHRMSRRPLPRPDPQGGSPGLRPPISPFSETVRIINRKVKPREPKRNRIILNLKVIDKGAGGGGAGQGAGALARPKVPSRNRVIGKSKKFSESVLRTQIRHMKFGAFALYKPPPAPLVAPSPGKAEASAPGPGLLLAAPAAPYDARSSGSSGCPSPTPQSSDPDDTPPKLLPETVSPSAPSWREPEVLDLSLPPESAATSKRAPPEVTAAAGPAPPTAPEPAGASSEPEAGDWRPEMSPCSNVVVTDVTSNLLTVTIKEFCNPEDFEKVAAGVAGAAGGGGSIGASK | failed
3 | MPPLRQTKTWVDRNGSAHVELSPTVPPQTPKRHMRIQSPMEISWSEAVREGGEHSARRCGDMAVSALAKPNPIIDDDPEGNPDVCMYTWIVECPGATAVLLWINGVFDHERIEESEMTRLEGSDLWILSLRMPSDWRASYTVNAWSGDGVAPWREAGDRMHIRKAAMSGGRPDSRAMGHIMDSSLVEGPDALPDCWVAASTSVKVVEETVAGEHFWFYEAPVKAPLLVLFDGQHWNNSMNLPAQVDAAIAIGLLPPVSLLMIDSVNTERRWDSVGVPGGQVDVLIDALLPHVRETYNVSARGEDTIVTGASFGGLASLWALALSDGEVGHAIAQSPSLWRFNVADALSAAEQWSSIHLQAGKYEGEMLRLSHQLAEDLSGDIREVRVRGVHGGHDWAWWRVHMLTELTRLLKTL | failed
4 | MVSTVRTVLGDVLPEHLGVCDAHDHLFFGSPQLPGQELRDASAARAELAAFREQGGGSVVQWTPYGLGRRAADLPLLSRDTGVHVVAATGLHQAVHYDAGTLAELRGRLADTFVAELTTGIGPSGVRAGLIKVAGGFHALDAHARWTMTAAAEAHHATGAPIAVHLELGTGALDVLDLLCGESGVPPHRVILGHLNRSPDFTVHRQAAEAGAFLAFDGPSRANHATDWRMPDALRALAEAGFGHRLLLGGDTTTAAARSVNGGPGLPYLLRRLRPRLEQALGKDLVGRIFTENPGRAFGVEWR | failed
5 | MGIKQYSQEELKEMALVEIAHELFEEHKKPVPFQELLNEIASLLGVKKEELGDRIAQFYTDLNIDGRFLALSDQTWGLRSWYPYDQLDEETQPTVKAKKKKAKKAVEEDLDLDEFEEIDEDDLDLDEVEEELDLEADDFDEEDLDEDDDDLEIEEDIIDEDDEDYDDEEEEIK | not failed
6 | MIGHNSPTRTAPLISVTTLDKVALSRLGRDVAVRNRKSRAVLAYLALSPHGFETRERICGLLWSESDEARARASLRQTVVDLKACLAEIEGVFSGDRLNVTLKPSLVTVDVGEIRHELKAGRIPPILLERQRVAESFLNGLDDIDPSFRNWVLVQRQCLQDEFISCLEAMAKAAADWPALKRAGQALLNLDPTNEIGCRAVMEASARMGDQATALRAYKGLWDLLETEFDSEPSAATQALVSDIKLGTIGATDRGAVTAIAAEAFGSQAQRLQEPAAGVLLFVREFELVSGSVRARNAVQIFRSELVASLVRFRDWAVMEWEGHPPRFTENAYCIEATGFIDGPTLRLSMTLKQLASGRYIWSEQFVIENSQWYQTQQRLIRRIAVALGVSMSSERLVQIASIPDLSLEQFDRWLRAQELIFQWRPESEERAEALFRSIIAESPRFAAAYAGLAGIINSRHLIFPGIGRRRERHAEALTFAKQATQIDPIDSRSQLHLAWSYAMNGIPQQAAISFLLACELNGNDPWTLVSASLGLAYCDDRENARRIATLALQTGLGVSRLQWSYQAGVRFLLGDYAGCVEAAERAADSVSYIGGWKAAALALLGNEKAAHEEADRFLAQLKTTWFGNESPEPGNVGTWLMDSFPIYSPEAVEALRRGLAGAGIVVSHMPLPEPVLSAAPDGVVRDA | failed
7 | MVAQNSVVVIGASGFGRESLDVLEAMKEAGHSLEIIGVVDDNPAAINLQRLAERKIEYLGTLKEWIEGSPKSCKYVLAIGNPTIRHKLSALLDKSGFDAFTAVHPSAVIGSQVVFGSGAVVCSGAVISTNVRLGVHVHINPNVTIGHDSILEDYVSINPAATISGEVLIMEETLIGAAATVLQGLTIGNRSLVGASSCVTKDISAGKVVKGIPARLEHHHHHH | not failed
8 | METNQLRGIFYMMAAMLLISVQEALAKYLGQALPVAQVVWARYLGHLVLMIILLWPKNGMSLLKTNKLFIQIARSLILLIDTVLFFFGLTMLGLAEATAIFFTVPLLVLLLSIPLLGERVSASSIVAVIVGFIGTLIIVRPGINGLGSSDLGIGALFIFGAACCTAIYNVTTRKLSASEPIPVTLFYTAIVGAVVTSLFLPFIWETPTSLEVWAALIFIGLFGGSAHSLIIISHKYAAATTVAPFIYSQIFWALGLGWLMFGELPDFYVYFGGAIVISSGLYLFYHGRTRVNTASQQLGKDPLLVNAAKIKALQNRP | failed
9 | MDTFNYQNFYNQEYYLNMVPGIPYDREAHGGHWLRFFNTVADRLINYVSPTSVLDVGCAKGFLLEAFYNRGILVHGFDYSEYAISCVREDLKPFAFVASAANSNAFLEKQDSYDLITCIEVVEHMPRDEAWLAIKNMCQSAKSIFFSSTSDDFAEPTHLTVLPRIYWLETFLSFGFVPDYKFDIHDLIPHGILLRKIDDNLTAFKMLIEVNETNLEVIKQQKIDIEKLNSEKVNLENKLQQTQTELERSHSQLQQTQTELERSHSQLQQTQTELERSHSQLQQTQTELERSHSQLQQTQTELERSHSQLHQTQTELERSQSQLQQTQTELERSQSQLQQIQMALTLPQSQLYQMQTELEHWKNLVDWMEGSRFWKLRALCLSLKKKIINFPIIKLDFGSLPVFRKNNYPIFVKRTGKLIKNQIMSFRTQNDFADEILAGVLQSFAESPEYSQWIKDYEAKNDELKEQRINAASFPYQPVLSIILPVYKLPLTVLQETINSVIQQTYSNWELCIAFADIDNYQTIDYLKTLSLQEKRIKLKVMAENKGISGNSNVSLNMASGEFVALLDHDDLLAPFAFYEVISELNKQPDLDFIYSDKDCISANSMVRSRLLLKPEWSPEILYSANYLTHLCIARRTLLEKIGGFRPETDGAQDWDLFLRITENTSRIARINSVLYHWRIIQGSTSLGIDSKPYALEGQLRSIQDHLTRTKLPATVSPHPESGFRLEWQASSAEVSIYIDGDVSWDSLSACIHAVSEFADPKLHKATIVLAEHTYTSKATERENLITAVNLPIDWLPIKEGDSKLATLANTIKQDKTDVVVFVSGLVKKFTEGWIQELSGWVLNHPDIGFVSSLVLTDNNLVVEAGLVVDQYNNGSPLMRGNFLYSWDIFGGALWYRNCSASSPWSIAFSYKNYLEGGGLPSNSPSLSHSMIKLCQAIRVNNKRGLVNPHARAFLQDLPKNDIPEFDDSLGNDPYFHPAFSSVVPLKLRVKNGKKN | failed
10 | MTSRLRALGGRINNIRTSELPKEKTRSEVTCSIRFLDGLVQTFKVNKQDLGQSLLDMAYGHLGVTEKEYFGLQHGDDPVDSPRWLEASKPLRKQLKGGLPCILHFRVRYFIPDPNTLQQEQTRHLYFLQLKMDVCEGRLTCPLNSAVVLASYAVQSHIGDFNSSIHHPGYLADSQFIPDQNDDFLSKVESLHEQHSGLKQSEAESCYINIARTLDFYGVELHGGRDLHNLDLMIGIASAGIAVYRKYICTSFYPWVNILKISFKRKKFFIHQRQKQAESREHIVAFNMLNYRSCKNLWKSCVEHHSFFQAKKLLPQEKNVLSQYWTLGSRNPKKSVNNQYCKKVIGGMVWNPVMRRSLSVERLETKSLPSRSPPITPNWRSPRLRHEIRKPRHSSADNLANEMTYITETEDVFYTYKGSLSPKDSDSEVSQNHSPHRGSLSENNPAQSCLTQKSSSSVSPCSNAPGSFSPDGVDQQFLEDYHKVTKGGSIEEASQYYCDKNDDGDGYLVLIRITPDKEGRFGFNLKGGVDQKMPLVVSRINPESPADTCMPKLNEGDQIVLINGRDISEHTHDQVVMFIKASRESHSRELALVIRRKAVRSLAEIRSEDELSQLFPEAMFPACPEGGDSLEGSMELLKKGLESGTVLIQFEQLYRKKPGLAVTFAKLPQNLDKNRYKDVLPYDTTRVLLQGNEDYINASYVNMEIPAANLVNKYIATQGPLPHTCAQFWQVVWDQKLSLVVMLTTLTERGRTKCHQYWPDPPDIMDHGIFHIQCQAEDCTIAYVSREMLVTNTETGEEHTVTHLQYVAWPDHGVPDDSSDFLEFVKYVRSLRVGGEPALVHCSAGIGRTGVLVTMETAMCLIERNLPVYPLDIVRKMRDQRAMMVQTSSQYKFVCEAILRVYEEGLVQTLDPS | failed
11 | MFSIVFPVIAPVLIVVAVGFGWARAGRPFDTATVSALGLGLGTPFLLTDVLMSANIAADALAAMGLAALLTLAGMAVGGALTLRLLKLPQAVFLPSMIFGNTGNIALPLCLFAFGDEGLALSIGYFTVVIVIQFSATALISSGERPVPVILRNPVIWTLLVVGTLKAGGIALPGWLADTAHMVGGMCIPVMLLALGVSLARLKVAGLGVALLLGAVKIALGVALGYATVLALDLHGAARGVVLIQSAMPPAVFNYLFAARYNQRPEEVAGLVIVSTGLSVLTMPLLLWGAMADM | failed
12 | MQEIISFIVETASAWGYLGIIILMTLESCFIPFPSEVVMIPAGYLAHKGELDITLCILSGTLGSVLGALINYYICFFWGKNFVLKWGKYFGINEVKFAKFEEFFNKHGEFSTFTCRLLPGIRQYISMPAGLVKMKLVNFILFTALGSAIWVAILVFLGYYIGQNEELIKTYLTQILIIIIVFVILASLIYISKSKSLLKRLKFYLLRFVWRF | failed
13 | MGHHHHHHSHMSTSLTGKPGALPANLDDMKVAELKQELKLRSLPVSGTKTELIERLRAYQDQISPVPGAPKAPAA | failed
14 | ETRIIKGFECKPHSQPWQAALFEKTRLLCGATLIAPRWLLTAAHCLKPRYIVHLGQHNLQKEEGCEQTRTATESFPHPGFNNSLPNKDHRNDIMLVKMASPVSITWAVRPLTLSSRCVTAGTSCLISGWGSTSSPQLRLPHTLRCANITIIEHQKCENAYPGNITDTMVCASVQEGGKDSCQGDSGGPLVCNQSLQGIISWGQDPCAITRKPGVYTKVCKYVDWIQETMKNN | failed
15 | MRVLVTGGAGFIGSHIVEDLLARGLEVAVLDNLATGKRENVPKGVPFFRVDLRDKEGVERAFREFRPTHVSHQAAQASVKVSVEDPVLDFEVNLLGGLNLLEACRQYGVEKLVFASTGGAIYGEVPEGERAEETWPPRPKSPYAASKAAFEHYLSVYGQSYGLKWVSLRYGNVYGPRQDPHGEAGVVAIFAERVLKGLPVTLYARKTPGDEGCVRDYVYVGDVAEAHALALFSLEGIYNVGTGEGHTTREVLMAVAEAAGKAPEVQPAPPRPGDLERSVLSPLKLMAHGWRPKVGFQEGIRLTVDHFRGAV | not failed
16 | MEVFLKEFLLNKFFIDFFYKNQNNITIKTILVTFKVIFSICFNSSNFGLRYSKKKTLNLSELMHLVTFMLAYFLIQV | failed
17 | IEVKQLEFPAFKVEIQKWLHFHINWQNDMDYIEKTNHTFYGAYVDNDLKGSICINEQGKISFIFIDKEYRNRGIGSKLLQVARDELNLESLLISFPNNSLLEGFLKKTGFEKNSLAQYEMYVLL | failed
18 | MGHHHHHHSHMARPLVPSSQKALLLELKGLQEEPVEGFRVTLVDEGDLYNWEVAIFGPPNTYYEGGYFKARLKFPIDYPYSPPAFRFLTKMWHPNIYETGDVCISILHPPVDDPQSGELPSERWNPTQNVRTILLSVISLLNEPNTFSPANVDASVMYRKWKESKGKDREYTDIIRKQVLGTKVDAERDGVKVPTTLAEYCVKTKAPAPDEGSDLFYDDYYEDGEVEEEADSCFGDDEDDSGTEES | failed
19 | MNDTPDDTFVSGYLLYLLAASSEEASAQFHDHIRAQGLRVPEWRVLACLVDNDAMMITRLAKLSLMEQSRMTRIVDQMDARGLVTRVADAKDKRRVRVRLTDDGRALAESLVASARAHETRLLSALADTDAARIKGVLRTLLDVLDRPRESR | not failed
